Where a chain is given by its changes, count along the chain named. Values belong to the binder of their own block, whether it stands above or below them.
What was measured:
[1] = target: DLL3 endogenously expressed on NCI-H82 cells (UniProt Q9NYJ7); assay: FACS on NCI-H82 cells; antibody 0.16 nM
[2] = target: DLL3 endogenously expressed on NCI-H82 cells (UniProt Q9NYJ7); assay: FACS on NCI-H82 cells; antibody 4 nM
[3] = target: human DLL1 protein (Acro, Cat. No. DL1-H52H8) (human) (UniProt O00548); assay: ELISA, coated hDLL1; maximum over 0.1, 1, 10, 100 nM antibody
[4] = target: mouse DLL3 on CHO-K1-mDLL3 cells (mouse) (UniProt O88516); assay: FACS, CHO-K1-mDLL3 cells, 0.0064 nM antibody
[5] = target: mouse DLL3 on CHO-K1-mDLL3 cells (mouse) (UniProt O88516); assay: FACS, CHO-K1-mDLL3 cells, 0.00128 nM antibody
[6] = target: human delta-like ligand 3 (DLL3) on SHP77 cells (human) (UniProt Q9NYJ7); assay: FACS on SHP77 cells
[7] = target: mouse DLL3 on CHO-K1-mDLL3 cells (mouse) (UniProt O88516); assay: FACS, CHO-K1-mDLL3 cells, 0.032 nM antibody
[8] = target: monkey DLL3 on CHO-K1-cyno DLL3 cells (cynomolgus monkey); assay: FACS, CHO-K1-cyno DLL3 cells, 0.16 nM antibody
[9] = target: human DLL4 protein (Acro, Cat. No. DL4-H5227) (human) (UniProt Q9NR61); assay: ELISA, coated hDLL4; maximum over 0.1, 1, 10, 100 nM antibody
[10] = target: mouse DLL3 on CHO-K1-mDLL3 cells (mouse) (UniProt O88516); assay: FACS, CHO-K1-mDLL3 cells, 100 nM antibody
[11] = target: DLL3 endogenously expressed on NCI-H82 cells (UniProt Q9NYJ7); assay: FACS on NCI-H82 cells; antibody 0.032 nM
[12] = target: mouse DLL3 on CHO-K1-mDLL3 cells (mouse) (UniProt O88516); assay: FACS, CHO-K1-mDLL3 cells, 0.8 nM antibody
[13] = target: monkey DLL3 on CHO-K1-cyno DLL3 cells (cynomolgus monkey); assay: FACS, CHO-K1-cyno DLL3 cells, 0.00128 nM antibody
[14] = target: human DLL3 protein expressed on CHO-K1 recombinant cells (human DLL3 extracellular segment fused to EpCAM transmembrane and intracellular regions) (human) (UniProt Q9NYJ7); assay: FACS, CHO-K1 hDLL3 cells, 0.8 nM antibody
[15] = target: mouse DLL3 on CHO-K1-mDLL3 cells (mouse) (UniProt O88516); assay: FACS, CHO-K1-mDLL3 cells, 0.16 nM antibody
[16] = target: monkey DLL3 on CHO-K1-cyno DLL3 cells (cynomolgus monkey); assay: FACS, CHO-K1-cyno DLL3 cells, 4 nM antibody
[17] = target: DLL3 endogenously expressed on NCI-H82 cells (UniProt Q9NYJ7); assay: FACS on NCI-H82 cells; antibody 20 nM
[18] = target: human DLL3 protein expressed on CHO-K1 recombinant cells (human DLL3 extracellular segment fused to EpCAM transmembrane and intracellular regions) (human) (UniProt Q9NYJ7); assay: FACS, CHO-K1 hDLL3 cells, 100 nM antibody
[19] = target: monkey DLL3 on CHO-K1-cyno DLL3 cells (cynomolgus monkey); assay: FACS, CHO-K1-cyno DLL3 cells, 0.0064 nM antibody
[20] = target: monkey DLL3 on CHO-K1-cyno DLL3 cells (cynomolgus monkey); assay: FACS, CHO-K1-cyno DLL3 cells, 0.032 nM antibody
[21] = target: DLL3 endogenously expressed on NCI-H82 cells (UniProt Q9NYJ7); assay: FACS on NCI-H82 cells; antibody 100 nM
[22] = target: human DLL3 protein expressed on CHO-K1 recombinant cells (human DLL3 extracellular segment fused to EpCAM transmembrane and intracellular regions) (human) (UniProt Q9NYJ7); assay: FACS, CHO-K1 hDLL3 cells, 0.0064 nM antibody
[23] = target: monkey DLL3 on CHO-K1-cyno DLL3 cells (cynomolgus monkey); assay: FACS, CHO-K1-cyno DLL3 cells, 0.8 nM antibody
[24] = target: DLL3 endogenously expressed on NCI-H82 cells (UniProt Q9NYJ7); assay: FACS on NCI-H82 cells; antibody 0.00128 nM
[25] = target: human DLL3 protein expressed on CHO-K1 recombinant cells (human DLL3 extracellular segment fused to EpCAM transmembrane and intracellular regions) (human) (UniProt Q9NYJ7); assay: FACS, CHO-K1 hDLL3 cells, 0.16 nM antibody
[26] = target: DLL3 endogenously expressed on NCI-H82 cells (UniProt Q9NYJ7); assay: FACS on NCI-H82 cells; antibody 0.8 nM
[27] = target: mouse DLL3 on CHO-K1-mDLL3 cells (mouse) (UniProt O88516); assay: FACS, CHO-K1-mDLL3 cells, 20 nM antibody
[28] = target: human DLL3 protein expressed on CHO-K1 recombinant cells (human DLL3 extracellular segment fused to EpCAM transmembrane and intracellular regions) (human) (UniProt Q9NYJ7); assay: FACS, CHO-K1 hDLL3 cells, 0.032 nM antibody
[29] = target: monkey DLL3 on CHO-K1-cyno DLL3 cells (cynomolgus monkey); assay: FACS, CHO-K1-cyno DLL3 cells, 20 nM antibody
[30] = target: human DLL3 protein expressed on CHO-K1 recombinant cells (human DLL3 extracellular segment fused to EpCAM transmembrane and intracellular regions) (human) (UniProt Q9NYJ7); assay: FACS, CHO-K1 hDLL3 cells, 4 nM antibody
[31] = target: DLL3 endogenously expressed on NCI-H82 cells (UniProt Q9NYJ7); assay: FACS on NCI-H82 cells; antibody 0.0064 nM
[32] = target: human DLL3 protein expressed on CHO-K1 recombinant cells (human DLL3 extracellular segment fused to EpCAM transmembrane and intracellular regions) (human) (UniProt Q9NYJ7); assay: FACS, CHO-K1 hDLL3 cells, 0.00128 nM antibody
[33] = target: monkey DLL3 on CHO-K1-cyno DLL3 cells (cynomolgus monkey); assay: FACS, CHO-K1-cyno DLL3 cells, 100 nM antibody
[34] = target: human DLL3 protein expressed on CHO-K1 recombinant cells (human DLL3 extracellular segment fused to EpCAM transmembrane and intracellular regions) (human) (UniProt Q9NYJ7); assay: FACS, CHO-K1 hDLL3 cells, 20 nM antibody
[35] = target: mouse DLL3 on CHO-K1-mDLL3 cells (mouse) (UniProt O88516); assay: FACS, CHO-K1-mDLL3 cells, 4 nM antibody

human delta-like ligand 3 (DLL3) on SHP77 cells (human), sequence (Q9NYJ7 27-618, stated change not applied): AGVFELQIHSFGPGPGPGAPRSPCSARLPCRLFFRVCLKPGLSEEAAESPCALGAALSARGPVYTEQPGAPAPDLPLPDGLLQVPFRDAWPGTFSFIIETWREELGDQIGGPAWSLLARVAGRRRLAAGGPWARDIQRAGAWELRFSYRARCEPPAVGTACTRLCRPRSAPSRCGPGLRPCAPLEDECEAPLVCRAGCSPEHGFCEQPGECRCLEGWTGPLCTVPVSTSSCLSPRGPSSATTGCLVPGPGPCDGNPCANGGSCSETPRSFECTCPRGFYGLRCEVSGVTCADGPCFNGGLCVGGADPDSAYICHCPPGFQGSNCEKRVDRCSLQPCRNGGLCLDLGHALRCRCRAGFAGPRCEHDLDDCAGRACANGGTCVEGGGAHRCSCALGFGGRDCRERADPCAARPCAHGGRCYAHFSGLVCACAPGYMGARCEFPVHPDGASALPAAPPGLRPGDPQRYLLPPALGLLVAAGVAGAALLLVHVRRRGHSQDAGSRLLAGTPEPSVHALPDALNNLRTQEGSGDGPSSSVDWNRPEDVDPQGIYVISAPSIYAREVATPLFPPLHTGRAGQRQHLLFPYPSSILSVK
DLL3 endogenously expressed on NCI-H82 cells, sequence (Q9NYJ7 27-618): as the sequence (Q9NYJ7 27-618, stated change not applied) above
mouse DLL3 on CHO-K1-mDLL3 cells (mouse), sequence (O88516 other isoform, or with tags, fused parts or gaps limits assumed): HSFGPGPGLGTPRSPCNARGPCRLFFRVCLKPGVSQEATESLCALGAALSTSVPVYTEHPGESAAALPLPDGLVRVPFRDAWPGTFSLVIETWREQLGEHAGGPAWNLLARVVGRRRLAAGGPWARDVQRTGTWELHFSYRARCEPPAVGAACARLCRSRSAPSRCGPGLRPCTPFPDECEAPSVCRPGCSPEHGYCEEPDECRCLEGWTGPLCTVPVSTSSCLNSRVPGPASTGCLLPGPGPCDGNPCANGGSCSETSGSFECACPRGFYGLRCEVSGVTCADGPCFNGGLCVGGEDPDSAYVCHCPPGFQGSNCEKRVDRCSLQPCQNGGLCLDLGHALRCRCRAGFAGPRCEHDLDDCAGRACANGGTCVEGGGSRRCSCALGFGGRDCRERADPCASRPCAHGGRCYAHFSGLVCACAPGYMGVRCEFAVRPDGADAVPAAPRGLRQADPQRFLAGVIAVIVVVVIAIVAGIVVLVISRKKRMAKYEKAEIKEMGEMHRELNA
monkey DLL3 on CHO-K1-cyno DLL3 cells (cynomolgus monkey), sequence (chain, as listed by the source limits assumed): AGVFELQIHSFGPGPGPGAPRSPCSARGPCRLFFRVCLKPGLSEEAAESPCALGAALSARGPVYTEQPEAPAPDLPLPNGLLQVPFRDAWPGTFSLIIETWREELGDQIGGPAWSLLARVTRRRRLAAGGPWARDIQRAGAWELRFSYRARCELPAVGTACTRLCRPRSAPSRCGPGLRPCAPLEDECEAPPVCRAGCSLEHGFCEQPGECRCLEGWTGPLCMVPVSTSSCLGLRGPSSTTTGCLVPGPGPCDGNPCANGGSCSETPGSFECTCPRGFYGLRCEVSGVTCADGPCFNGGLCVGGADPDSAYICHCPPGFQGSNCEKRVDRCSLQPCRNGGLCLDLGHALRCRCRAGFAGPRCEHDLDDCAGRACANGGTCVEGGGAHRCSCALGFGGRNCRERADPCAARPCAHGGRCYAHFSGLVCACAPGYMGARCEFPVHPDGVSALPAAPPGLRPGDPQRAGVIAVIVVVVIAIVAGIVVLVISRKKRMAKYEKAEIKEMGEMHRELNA
human DLL3 protein expressed on CHO-K1 recombinant cells (human DLL3 extracellular segment fused to EpCAM transmembrane and intracellular regions) (human), sequence (Q9NYJ7 other isoform, or with tags, fused parts or gaps limits assumed): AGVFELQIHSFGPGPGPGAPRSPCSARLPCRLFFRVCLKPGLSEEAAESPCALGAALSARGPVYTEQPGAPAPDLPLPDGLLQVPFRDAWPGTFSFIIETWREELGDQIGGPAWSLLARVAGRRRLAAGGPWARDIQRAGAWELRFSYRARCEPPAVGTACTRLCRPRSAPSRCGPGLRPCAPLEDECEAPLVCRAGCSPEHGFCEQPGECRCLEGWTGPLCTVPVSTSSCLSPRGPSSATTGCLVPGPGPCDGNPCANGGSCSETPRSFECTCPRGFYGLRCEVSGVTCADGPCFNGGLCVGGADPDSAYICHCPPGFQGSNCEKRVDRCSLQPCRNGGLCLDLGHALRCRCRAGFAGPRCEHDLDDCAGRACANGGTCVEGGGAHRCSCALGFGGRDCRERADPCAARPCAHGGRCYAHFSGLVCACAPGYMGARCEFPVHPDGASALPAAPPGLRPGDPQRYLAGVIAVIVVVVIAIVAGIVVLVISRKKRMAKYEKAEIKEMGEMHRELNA
human DLL1 protein (Acro, Cat. No. DL1-H52H8) (human), sequence (O00548 18-540 limits assumed): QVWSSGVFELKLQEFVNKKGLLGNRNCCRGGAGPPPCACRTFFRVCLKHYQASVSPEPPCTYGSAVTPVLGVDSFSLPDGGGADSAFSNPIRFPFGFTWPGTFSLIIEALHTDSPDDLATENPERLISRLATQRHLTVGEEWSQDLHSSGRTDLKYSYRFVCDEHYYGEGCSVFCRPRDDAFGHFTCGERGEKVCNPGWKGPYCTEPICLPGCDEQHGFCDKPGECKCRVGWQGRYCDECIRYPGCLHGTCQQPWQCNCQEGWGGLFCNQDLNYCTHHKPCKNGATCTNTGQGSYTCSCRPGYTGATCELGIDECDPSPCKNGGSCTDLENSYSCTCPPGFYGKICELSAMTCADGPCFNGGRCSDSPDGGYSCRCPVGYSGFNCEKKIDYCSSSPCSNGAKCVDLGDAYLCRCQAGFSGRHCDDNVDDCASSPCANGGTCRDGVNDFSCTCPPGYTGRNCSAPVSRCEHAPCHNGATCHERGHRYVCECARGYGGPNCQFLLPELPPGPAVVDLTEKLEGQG
human DLL4 protein (Acro, Cat. No. DL4-H5227) (human), sequence (Q9NR61 27-524 limits assumed): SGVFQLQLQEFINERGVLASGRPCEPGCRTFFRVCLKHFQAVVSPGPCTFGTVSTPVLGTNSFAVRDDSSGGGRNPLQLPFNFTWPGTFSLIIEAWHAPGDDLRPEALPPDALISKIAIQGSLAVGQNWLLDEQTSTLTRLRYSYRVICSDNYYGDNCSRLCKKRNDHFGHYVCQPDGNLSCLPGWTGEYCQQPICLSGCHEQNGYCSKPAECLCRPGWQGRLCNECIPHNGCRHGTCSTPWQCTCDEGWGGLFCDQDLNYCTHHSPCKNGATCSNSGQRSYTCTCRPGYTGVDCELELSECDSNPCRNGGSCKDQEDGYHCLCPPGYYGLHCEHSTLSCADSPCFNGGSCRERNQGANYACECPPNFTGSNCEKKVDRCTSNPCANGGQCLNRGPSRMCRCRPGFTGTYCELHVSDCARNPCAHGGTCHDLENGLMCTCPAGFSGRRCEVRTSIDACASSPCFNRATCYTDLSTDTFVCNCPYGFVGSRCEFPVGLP

MFI [1]: 476
MFI [2]: 1030
Emax of OD450 nm binding value [3]: 0.42 OD450 nm
MFI [4]: 126 MFI
MFI [5]: 117 MFI
MFI at 0.00128 nM [6]: 100 MFI
MFI at 0.0064 nM [6]: 117 MFI
MFI at 0.032 nM [6]: 179 MFI
MFI at 0.16 nM [6]: 368 MFI
MFI at 0.8 nM [6]: 709 MFI
MFI at 4 nM [6]: 812 MFI
MFI at 20 nM [6]: 997 MFI
MFI at 100 nM [6]: 1250 MFI
MFI [7]: 170 MFI
MFI [8]: 1180 MFI
Emax of OD450 nm binding value [9]: 0.71 OD450 nm
MFI [10]: 1530 MFI
MFI [11]: 212
MFI [12]: 875 MFI
MFI [13]: 122 MFI
MFI [14]: 4390 MFI
MFI [15]: 350 MFI
MFI [16]: 6520 MFI
MFI [17]: 1190
MFI [18]: 12400 MFI
MFI [19]: 164 MFI
MFI [20]: 377 MFI
MFI [21]: 1510
MFI [22]: 150 MFI
MFI [23]: 4480 MFI
MFI [24]: 118
MFI [25]: 870 MFI
MFI [26]: 942
MFI [27]: 1420 MFI
MFI [28]: 283 MFI
MFI [29]: 7180 MFI
MFI [30]: 10900 MFI
MFI [31]: 135
MFI [32]: 122 MFI
MFI [33]: 7610 MFI
MFI [34]: 12000 MFI
MFI [35]: 1210 MFI
B1: Hab015VL4VH5a-hFc (scFv, part only; not given: VL-VH linker and human IgG1 Fc, V domains shown, not shown: another chain or arm of the molecule; a dimerising Fc or GST; small tags and cut ends)
VL: NIVLTQSPATLSLSPGERATLSCKASENVGTYVSWFQQKPGQSPRLLIYGASNRYTGIPARFSGSGSGTDFTLTISSLEPEDFAVYYCGQFYSFPSTFGGGTKVEIK
VH: EVQLVESGGGLVKPGGSLRLSCVASGITFSNFWMNWVRQAPGKGLEWVGQIRLKSDDYATHYAESVKGRFTISREDSKNTVYLQMNSLKTEDTAVYYCTTGYYFDYWGQGTTVTVSS

MFI [1]: 478
MFI [2]: 867
Emax of OD450 nm binding value [3]: 0.47 OD450 nm
MFI [4]: 131 MFI
MFI [5]: 121 MFI
MFI at 0.00128 nM [6]: 102 MFI
MFI at 0.0064 nM [6]: 122 MFI
MFI at 0.032 nM [6]: 185 MFI
MFI at 0.16 nM [6]: 343 MFI
MFI at 0.8 nM [6]: 612 MFI
MFI at 4 nM [6]: 768 MFI
MFI at 20 nM [6]: 907 MFI
MFI at 100 nM [6]: 1140 MFI
MFI [7]: 195 MFI
MFI [8]: 1190 MFI
Emax of OD450 nm binding value [9]: 0.71 OD450 nm
MFI [10]: 1550 MFI
MFI [11]: 219
MFI [12]: 922 MFI
MFI [13]: 131 MFI
MFI [14]: 4310 MFI
MFI [15]: 393 MFI
MFI [16]: 6660 MFI
MFI [17]: 1100
MFI [18]: 12000 MFI
MFI [19]: 178 MFI
MFI [20]: 415 MFI
MFI [21]: 1220
MFI [22]: 160 MFI
MFI [23]: 4340 MFI
MFI [24]: 118
MFI [25]: 936 MFI
MFI [26]: 811
MFI [27]: 1290 MFI
MFI [28]: 330 MFI
MFI [29]: 7040 MFI
MFI [30]: 10600 MFI
MFI [31]: 137
MFI [32]: 129 MFI
MFI [33]: 7380 MFI
MFI [34]: 11800 MFI
MFI [35]: 1200 MFI
B2: Hab015VL5VH1a-hFc (scFv, part only; not given: scFv linker and human IgG1 Fc, V domains shown, not shown: another chain or arm of the molecule; a dimerising Fc or GST; small tags and cut ends)
VL: NIQMTQSPSSLSASVGDRVTITCKASENVGTYVSWYQQKPGKSPKLLIYGASNRYTGVPSRFSGSGSGTDFTLTISSLQPEDFATYYCGQFYSFPSTFGGGTKVEIK
VH: B1 VH with V23A

From EP4786492A1
